Consider 2 substances from patent US20050241007.

The subject of this data set is Frog Prince transposase (consensus, FP) (Rana pipiens). In words: cell_activity. The note with it: G418-resistant colony increase in HeLa cells.

Sequence of Frog Prince transposase (consensus, FP) (Rana pipiens) (chain, as listed by the source): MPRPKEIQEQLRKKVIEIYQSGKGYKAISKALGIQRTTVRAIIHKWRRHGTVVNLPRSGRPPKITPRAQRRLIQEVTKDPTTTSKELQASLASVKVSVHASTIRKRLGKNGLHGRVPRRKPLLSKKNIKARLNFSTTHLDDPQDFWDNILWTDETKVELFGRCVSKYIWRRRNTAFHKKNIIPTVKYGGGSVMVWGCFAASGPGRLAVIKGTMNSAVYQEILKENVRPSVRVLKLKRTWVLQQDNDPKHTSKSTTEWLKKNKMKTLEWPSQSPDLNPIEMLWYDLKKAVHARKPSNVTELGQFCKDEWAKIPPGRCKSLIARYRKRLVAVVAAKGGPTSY

In the case of “CAGTGGTGTGAAAAAGTGTTTGCCCCCTTCCTCATTTCCTGTTCCTTTGCATGTTTGTCACACTTAAGTGTTTCGGAACATCAAACCAATTTAAACAATAGTCAAGGACAACACAAGTAAACACAAAATGCAATTTGTAAATGAAGGTGTTTATTATTAAAGGTGAAAAAAAATCCAAACCATCATGGCCCTGTGTGAAAAAGTGATTGCCCCCCTTGTTAAAACATACTATAACTGTGGTTGTCCACAC (double strand) [Frog Prince transposon inverted repeat (pFrogPrince-neo)]”, for the setting “transposition”, the activity came out at 17 fold.

In turn, Txr transposon (pTxr-neo) had an activity (cross-mobilization) of 5 fold.
